In patent US20200277376A1 (SUZHOU STAINWEI BIOTECH, published 2020):

B1: human PDL2-Fc fusion protein (Fc fusion, UniProt Q9BQ51 20-219, looked up, not shown: a dimerising Fc or GST)
chain: LFTVTVPKELYIIEHGSNVTLECNFDTGSHVNLGAITASLQKVENDTSPHRERATLLEEQLPLGKASFHIPQVQVRDEGQYQCIIIYGVAWDYKYLTLKVKASYRKINTHILKVPETDEVELTCQATGYPLAEVSWPNVSVPANTSHSRTPEGLYQVTSVLRLKPPPGRNFSCVFWNTHVRELTLASIDLQSQMEPRTHP
notes: also called biotin-PDL2-Fc; Biotin-PDL2Fc

Columns and labels:
[1] = target: recombination human PD-1 extracellular protein (Sino Biological Inc.) (human) (UniProt Q15116); assay: competitive ELISA, plate coated with human PD-1 protein; competitor biotin-hAb21
recombination human PD-1 extracellular protein (Sino Biological Inc.) (human), sequence (Q15116 25-170): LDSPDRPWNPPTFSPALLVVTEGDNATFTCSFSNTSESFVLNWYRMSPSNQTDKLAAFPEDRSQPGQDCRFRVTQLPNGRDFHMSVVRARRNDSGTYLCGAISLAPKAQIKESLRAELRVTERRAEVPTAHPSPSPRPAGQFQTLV

[2] = target: T1, human PD-1 on cells (CHO cells stably expressing human PD-1) (human, UniProt Q15116 25-288); assay: flow cytometry on CHO/PD-1 cells
T1 construct: whole, on cells; also called CHO/PD-1; CHO-PD-1
T1 sequence (Q15116 25-288): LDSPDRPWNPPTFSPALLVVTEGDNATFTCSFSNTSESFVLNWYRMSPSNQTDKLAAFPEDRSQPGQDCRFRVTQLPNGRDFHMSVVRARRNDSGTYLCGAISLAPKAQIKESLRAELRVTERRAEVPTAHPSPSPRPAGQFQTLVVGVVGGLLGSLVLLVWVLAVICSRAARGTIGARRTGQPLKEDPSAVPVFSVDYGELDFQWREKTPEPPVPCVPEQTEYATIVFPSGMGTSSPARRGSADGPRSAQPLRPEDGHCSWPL

Row | Molecule | antagonizing/inhibiting ratio [1] [%] | binding result [2]
1 | MK3475+Nivo (Nivolumab and MK3475 added together) | 70 | 
2 | B1 |  | binds
